B1: KCC3b-PM (human potassium-chloride cotransporter KCC3 isoform B, phospho-mimetic S45D/T940D/T997D, M1-S1099) (natural protein, UniProt Q9UHW9-2 1-1099, looked up)
chain: MPHFTVTKVEDPEEGAAASISQEPSLADIKARIQDSDEPDLSQNDITGEHSQLLDDGHKKARNAYLNNSNYEEGDEYFDKNLALFEEEMDTRPKVSSLLNRMANYTNLTQGAKEHEEAENITEGKKKPTKTPQMGTFMGVYLPCLQNIFGVILFLRLTWVVGTAGVLQAFAIVLICCCCTMLTAISMSAIATNGVVPAGGSYFMISRALGPEFGGAVGLCFYLGTTFAAAMYILGAIEIFLVYIVPRAAIFHSDDALKESAAMLNNMRVYGTAFLVLMVLVVFIGVRYVNKFASLFLACVIVSILAIYAGAIKSSFAPPHFPVCMLGNRTLSSRHIDVCSKTKEINNMTVPSKLWGFFCNSSQFFNATCDEYFVHNNVTSIQGIPGLASGIITENLWSNYLPKGEIIEKPSAKSSDVLGSLNHEYVLVDITTSFTLLVGIFFPSVTGIMAGSNRSGDLKDAQKSIPIGTILAILTTSFVYLSNVVLFGACIEGVVLRDKFGDAVKGNLVVGTLSWPSPWVIVIGSFFSTCGAGLQSLTGAPRLLQAIAKDNIIPFLRVFGHSKANGEPTWALLLTAAIAELGILIASLDLVAPILSMFFLMCYLFVNLACALQTLLRTPNWRPRFRYYHWALSFMGMSICLALMFISSWYYAIVAMVIAGMIYKYIEYQGAEKEWGDGIRGLSLSAARFALLRLEEGPPHTKNWRPQLLVLLKLDEDLHVKHPRLLTFASQLKAGKGLTIVGSVIVGNFLENYGEALAAEQTIKHLMEAEKVKGFCQLVVAAKLREGISHLIQSCGLGGMKHNTVVMGWPNGWRQSEDARAWKTFIGTVRVTTAAHLALLVAKNISFFPSNVEQFSEGNIDVWWIVHDGGMLMLLPFLLKQHKVWRKCSIRIFTVAQLEDNSIQMKKDLATFLYHLRIEAEVEVVEMHDSDISAYTYERDLMMEQRSQMLRHMRLSKTERDREAQLVKDRNSMLRLTSIGSDEDEETETYQEKVHMDWTKDKYMASRGQKAKSMEGFQDLLNMRPDQSNVRRMHTAVKLNEVIVNKSHEAKLVLLNMPGPPRNPEGDENYMEFLEVLTEGLERVLLVRGGGSEVITIYS
modifications: phosphorylated at S685, T727, S930 and Y1070 (by proteomics analysis; the paper says likely only in a subset of the particles for some sites); not phosphorylated at T106/T109
notes: KCC3 (SLC12A6), human, isoform B (KCC3b), residues M1-S1099 (printed length 1099); numbers count on: the B-isoform; Synthesized gene (GenScript, Twist Bioscience) subcloned into pHTBV with C-terminal twin-strep, 10-His and GFP; also called KCC3‐PM; KCC3b (construct PM); not shown: twin-Strep, C-terminal, cleaved; His10, C-terminal, cleaved
B2: KCC1Δ19 (human potassium-chloride cotransporter KCC1, isoform A, N-terminally deleted, L20-S1085) (domain or fragment, UniProt Q9UP95 20-1085, looked up)
chain: LEGLSWVDYGERAELDDSDGHGNHRESSPFLSPLEASRGIDYYDRNLALFEEELDIRPKVSSLLGKLVSYTNLTQGAKEHEEAESGEGTRRRAAEAPSMGTLMGVYLPCLQNIFGVILFLRLTWMVGTAGVLQALLIVLICCCCTLLTAISMSAIATNGVVPAGGSYFMISRSLGPEFGGAVGLCFYLGTTFAAAMYILGAIEILLTYIAPPAAIFYPSGAHDTSNATLNNMRVYGTIFLTFMTLVVFVGVKYVNKFASLFLACVIISILSIYAGGIKSIFDPPVFPVCMLGNRTLSRDQFDICAKTAVVDNETVATQLWSFFCHSPNLTTDSCDPYFMLNNVTEIPGIPGAAAGVLQENLWSAYLEKGDIVEKHGLPSADAPSLKESLPLYVVADIATSFTVLVGIFFPSVTGIMAGSNRSGDLRDAQKSIPVGTILAIITTSLVYFSSVVLFGACIEGVVLRDKYGDGVSRNLVVGTLAWPSPWVIVIGSFFSTCGAGLQSLTGAPRLLQAIAKDNIIPFLRVFGHGKVNGEPTWALLLTALIAELGILIASLDMVAPILSMFFLMCYLFVNLACAVQTLLRTPNWRPRFKYYHWALSFLGMSLCLALMFVSSWYYALVAMLIAGMIYKYIEYQGAEKEWGDGIRGLSLSAARYALLRLEEGPPHTKNWRPQLLVLLKLDEDLHVKYPRLLTFASQLKAGKGLTIVGSVIQGSFLESYGEAQAAEQTIKNMMEIEKVKGFCQVVVASKVREGLAHLIQSCGLGGMRHNSVVLGWPYGWRQSEDPRAWKTFIDTVRCTTAAHLALLVPKNIAFYPSNHERYLEGHIDVWWIVHDGGMLMLLPFLLRQHKVWRKCRMRIFTVAQMDDNSIQMKKDLAVFLYHLRLEAEVEVVEMHNSDISAYTYERTLMMEQRSQMLRQMRLTKTEREREAQLVKDRHSALRLESLYSDEEDESAVGADKIQMTWTRDKYMTETWDPSHAPDNFRELVHIKPDQSNVRRMHTAVKLNEVIVTRSHDARLVLLNMPGPPRNSEGDENYMEFLEVLTEGLERVLLVRGGGREVITIYS
modifications: phosphoserine at S88, S734 and S1050 (by proteomics analysis); not phosphorylated at T926/T983
notes: KCC1 (SLC12A4), human, isoform A, residues L20-S1085; Cloned into the pHTBV vector with and without GFP; also called KCC1 (construct Δ19); Δ19-deleted human KCC1; not shown: twin-Strep, C-terminal, cleaved; His10, C-terminal, cleaved

Target: the molecule itself
Test: cryo-EM structure; single-particle cryo-EM of the purified transporter in digitonin, 150 mM NaCl, 20 mM HEPES pH 7.5 (KCC3b-PM also in KCl); homodimer

Row | Protein | stoichiometry N
1 | B1 | 2
2 | B2 | 2

— publication PMC8280820, “Phospho‐regulation, nucleotide binding and ion access control in potassium‐chloride cotransporters” (The EMBO Journal, 2021)
